From patent US20220064329A1 (Novo Nordisk, published 2022)

Key:
Test in all cases: SPR, ratio of KD to KD of WT
FVII(a) variant Y118A = molecular target: T1, FVII(a) variant Y118A (human, UniProt P08709 61-466)
T1 construct: hFVII alanine variant in cell culture supernatant
T1 sequence: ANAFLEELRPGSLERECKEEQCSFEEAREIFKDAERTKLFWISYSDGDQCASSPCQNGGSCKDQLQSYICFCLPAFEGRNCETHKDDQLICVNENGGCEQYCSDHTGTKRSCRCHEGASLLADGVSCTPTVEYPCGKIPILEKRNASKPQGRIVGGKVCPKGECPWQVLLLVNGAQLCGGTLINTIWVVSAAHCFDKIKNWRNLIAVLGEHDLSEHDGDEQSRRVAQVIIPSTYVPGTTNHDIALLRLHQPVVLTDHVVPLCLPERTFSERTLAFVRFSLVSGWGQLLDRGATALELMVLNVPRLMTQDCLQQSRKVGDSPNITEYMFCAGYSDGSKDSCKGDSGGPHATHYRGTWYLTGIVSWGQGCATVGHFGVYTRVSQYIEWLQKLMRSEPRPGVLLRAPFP
Experimental: (§1) The running buffer was prepared by diluting 10-fold the 10×HBS-P buffer (supplied by GE Healthcare) and supplemented with 1 mg/ml BSA and 5 mM CaCl2 to give 10 mM HEPES, 150 mM NaCl, 0.05% v/v Polysorbate 20, pH 7.4, 5 mM CaCl2, 1 mg/ml bovine serum albumin (BSA). […] Regeneration of the chip was achieved using 10 mM HEPES, 150 mM NaCl, 20 mM EDTA, 0.05 v/v Polysorbate 20, pH 7.4. Binding data were analysed according to a 1:1 Kinetic model and steady state analysis using BiaEvaluation 4.1 supplied by the manufacturer (Biacore AB, Uppsala, Sweden). Wherever possible, ka, kd and KD values from 1:1 kinetic fitting model are reported. […] An amino acid residue is considered a hot-spot residue if substitution of that amino acid residue with alanine results in an affinity reduction of ten (10) fold or more relative to the wild type.

FVII(a) variant T185A = molecular target: T2, FVII(a) variant T185A (human, UniProt P08709 61-466)
T2 construct: hFVII alanine variant in cell culture supernatant
T2 sequence: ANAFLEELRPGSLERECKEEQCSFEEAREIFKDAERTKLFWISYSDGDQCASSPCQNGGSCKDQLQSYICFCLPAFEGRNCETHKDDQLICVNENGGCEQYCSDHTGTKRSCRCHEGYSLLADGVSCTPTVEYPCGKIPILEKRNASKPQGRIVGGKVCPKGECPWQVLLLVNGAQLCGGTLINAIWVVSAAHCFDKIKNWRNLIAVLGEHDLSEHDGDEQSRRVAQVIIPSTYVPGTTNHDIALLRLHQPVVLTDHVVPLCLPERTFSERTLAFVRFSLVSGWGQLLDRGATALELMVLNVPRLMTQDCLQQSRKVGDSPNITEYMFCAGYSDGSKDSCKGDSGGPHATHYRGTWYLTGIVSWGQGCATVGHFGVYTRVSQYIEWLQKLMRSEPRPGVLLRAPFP
Experimental: as §1

FVII(a) variant R392A = molecular target: T3, FVII(a) variant R392A (human, UniProt P08709 61-466)
T3 construct: hFVII alanine variant in cell culture supernatant
T3 sequence: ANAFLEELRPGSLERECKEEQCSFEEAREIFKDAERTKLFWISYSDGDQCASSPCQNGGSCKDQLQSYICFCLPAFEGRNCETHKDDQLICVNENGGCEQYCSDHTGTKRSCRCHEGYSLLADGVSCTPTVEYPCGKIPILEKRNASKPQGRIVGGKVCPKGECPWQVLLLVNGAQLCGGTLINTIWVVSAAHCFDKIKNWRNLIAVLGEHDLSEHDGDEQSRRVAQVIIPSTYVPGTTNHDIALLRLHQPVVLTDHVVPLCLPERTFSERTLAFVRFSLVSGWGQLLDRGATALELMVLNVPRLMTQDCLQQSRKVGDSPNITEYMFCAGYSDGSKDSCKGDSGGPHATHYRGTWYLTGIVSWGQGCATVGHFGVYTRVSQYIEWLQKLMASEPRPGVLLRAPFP
Experimental: as §1

FVII(a) WT = molecular target: T4, FVII(a) WT (human, UniProt P08709 61-466)
T4 construct: also called wild type human FVII(a)
T4 sequence: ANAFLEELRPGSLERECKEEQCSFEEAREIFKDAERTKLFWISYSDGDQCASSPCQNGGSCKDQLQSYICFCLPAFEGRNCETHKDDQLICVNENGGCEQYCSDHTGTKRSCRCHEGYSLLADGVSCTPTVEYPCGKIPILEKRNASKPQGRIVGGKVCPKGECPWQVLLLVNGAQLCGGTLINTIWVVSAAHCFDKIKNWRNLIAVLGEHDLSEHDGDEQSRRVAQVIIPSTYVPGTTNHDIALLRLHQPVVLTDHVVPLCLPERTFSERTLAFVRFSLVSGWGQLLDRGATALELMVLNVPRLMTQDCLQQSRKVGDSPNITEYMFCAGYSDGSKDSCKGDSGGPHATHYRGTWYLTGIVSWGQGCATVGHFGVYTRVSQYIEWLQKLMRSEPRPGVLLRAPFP
Experimental: as §1

FVII(a) variant M391A = molecular target: T5, FVII(a) variant M391A (human, UniProt P08709 61-466)
T5 construct: hFVII alanine variant in cell culture supernatant
T5 sequence: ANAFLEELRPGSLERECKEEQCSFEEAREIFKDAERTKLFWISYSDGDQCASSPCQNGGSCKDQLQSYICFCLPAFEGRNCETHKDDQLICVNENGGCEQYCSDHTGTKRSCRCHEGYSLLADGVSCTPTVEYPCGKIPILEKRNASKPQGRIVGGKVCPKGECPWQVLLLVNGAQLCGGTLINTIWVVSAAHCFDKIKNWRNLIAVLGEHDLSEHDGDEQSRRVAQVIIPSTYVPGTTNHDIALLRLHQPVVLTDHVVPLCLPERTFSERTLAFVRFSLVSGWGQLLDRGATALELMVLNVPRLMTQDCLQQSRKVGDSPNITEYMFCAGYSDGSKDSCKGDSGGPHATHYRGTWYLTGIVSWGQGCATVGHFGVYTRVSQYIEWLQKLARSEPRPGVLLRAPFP
Experimental: as §1

B1: mAb0842(OA) (antibody, human IgG4 S228P, kappa)
heavy: QVQLQESGPGLVKPSQTLSLTCTVSGYSISSDSAWSWIRQPPGKGLEWIGYIQYSGSTNYNPSLKSRVTISRDTSKNQFSLKLSSVTAADTAVYYCARSVNYYGNSFAVGYWGQGTLVTVSSASTKGPSVFPLAPCSRSTSESTAALGCLVKDYFPEPVTVSWNSGALTSGVHTFPAVLQSSGLYSLSSVVTVPSSSLGTKTYTCNVDHKPSNTKVDKRVESKYGPPCPPCPAPEFLGGPSVFLFPPKPKDTLMISRTPEVTCVVVDVSQEDPEVQFNWYVDGVEVHNAKTKPREEQFNSTYRVVSVLTVLHQDWLNGKEYKCKVSNKGLPSSIEKTISKAKGQPREPQVYTLPPSQEEMTKNQVSLSCAVKGFYPSDIAVEWESNGQPENNYKTTPPVLDSDGSFFLVSRLTVDKSRWQEGNVFSCSVMHEALHNHYTQKSLSLSLGK
light: EIVLTQSPATLSLSPGERATLSCRASQGISDYLHWYQQKPGEAPRLLIKYTSQPATGIPARFSGSGSGTDFTLTISSLEPEDFAVYYCQNGHSFPLTFGQGTKLEIKRTVAAPSVFIFPPSDEQLKSGTASVVCLLNNFYPREAKVQWKVDNALQSGNSQESVTEQDSKDSTYSLSSTLTLSKADYEKHKVYACEVTHQGLSSPVTKSFNRGEC
chain: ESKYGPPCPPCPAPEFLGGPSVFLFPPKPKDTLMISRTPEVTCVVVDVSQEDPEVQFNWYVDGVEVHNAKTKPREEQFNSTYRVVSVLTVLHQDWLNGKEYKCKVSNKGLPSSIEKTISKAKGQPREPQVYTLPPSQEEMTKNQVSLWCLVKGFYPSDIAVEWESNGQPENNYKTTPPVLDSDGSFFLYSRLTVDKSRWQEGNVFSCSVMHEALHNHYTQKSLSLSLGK
notes: also called monovalent humanized 11F2 antibody; one-armed anti-FVII(a) antibody
FVII(a) variant Y118A
  Fold diff (Variant/WT): 4.9 fold
FVII(a) variant T185A
  Fold diff (Variant/WT): 3.3 fold
FVII(a) variant R392A
  Fold diff (Variant/WT): 142 fold
FVII(a) WT
  Fold diff (Variant/WT): 1 fold
FVII(a) variant M391A
  Fold diff (Variant/WT): 0.8 fold
